Measurements reported in PMC7925596, “Exploring targeting peptide-shell interactions in encapsulin nanocompartments” (Scientific Reports, 2021).

B1: Thermotoga maritima encapsulin (T1 encapsulin shell) (natural protein, T. maritima)
chain: MEFLKRSFAPLTEKQWQEIDNRAREIFKTQLYGRKFVDVEGPYGWEYAAHPLGEVEVLSDENEVVKWGLRKSLPLIELRATFTLDLWELDNLERGKPNVDLSSLEETVRKVAEFEDEVIFRGCEKSGVKGLLSFEERKIECGSTPKDLLEAIVRALSIFSKDGIEGPYTLVINTDRWINFLKEEAGHYPLEKRVEECLRGGKIITTPRIEDALVVSERGGDFKLILGQDLSIGYEDREKDAVRLFITETFTFQVVNPEALILLKF
notes: encapsulin shell protein of Thermotoga maritima, T1 icosahedral shell, 24 nm, 60 subunits; Cloned into pBAD/HisA cut with NcoI and XhoI; also called T. maritima encapsulin protein; source: E. coli One shot BL21 (DE3) Star, pBAD/HisA, L-arabinose induced; purified as assembled particles (PEG-8000 precipitation, SEC, anion exchange); copies: 60

How the values were obtained:
[1] = target: B1; experiment: bulk fluorescence of purified encapsulin particles (loading percentage); particles loaded in E. coli and purified; 15 ug/mL in 20 mM Tris, 100 mM NaCl, pH 8 with 1 mg/mL BSA; plate reader Ex 500 nm, Em 530 nm, 20 C; loading = percentage of occupied TP binding sites (T1: 60, T3: 180), mNeonGreen standard curve; triplicates; settings: partners not purified
[2] = target: the molecule itself; experiment: negative stain transmission electron microscopy; purified particles, 1 mg/mL in low salt buffer, uranyl formate stain, 80 keV
[3] = target: T1, Myxococcus xanthus encapsulin (T3 encapsulin shell) (M. xanthus, UniProt Q1D6H4 1-287); experiment: bulk fluorescence of purified encapsulin particles (loading percentage); particles loaded in E. coli and purified; 15 ug/mL in 20 mM Tris, 100 mM NaCl, pH 8 with 1 mg/mL BSA; plate reader Ex 500 nm, Em 530 nm, 20 C; loading = percentage of occupied TP binding sites (T1: 60, T3: 180), mNeonGreen standard curve; triplicates; settings: partners not purified
T1 construct: encapsulin shell protein of Myxococcus xanthus, T3 icosahedral shell, 32 nm, 180 subunits; Cloned into pBAD/HisA cut with NcoI and XhoI; also called M. xanthus encapsulin protein; source: E. coli One shot BL21 (DE3) Star, pBAD/HisA, L-arabinose induced; purified as assembled particles (PEG-8000 precipitation, SEC, anion exchange); copies: 180
T1 sequence (Q1D6H4 whole entry): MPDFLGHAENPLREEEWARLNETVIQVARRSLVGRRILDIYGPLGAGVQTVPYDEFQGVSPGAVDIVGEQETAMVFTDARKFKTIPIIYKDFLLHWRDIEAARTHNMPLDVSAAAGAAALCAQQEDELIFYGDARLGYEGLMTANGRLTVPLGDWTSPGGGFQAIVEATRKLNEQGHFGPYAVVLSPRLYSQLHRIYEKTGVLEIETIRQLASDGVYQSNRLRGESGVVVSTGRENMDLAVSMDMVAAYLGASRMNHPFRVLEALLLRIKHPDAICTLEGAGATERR

Row | cargo proteins per shell [1] [cargo proteins per shell] | Binder | other results
1 | ~2 | NTGGDLGIRK (native targeting peptide of the T. maritima (T1) encapsulin system, from the C-terminus of the native cargo protein; The targeting peptide is at the C-terminus of mNeonGreen; also called mNeonGreenTP (native T1 TP); native T1 TP; source: E. coli One shot BL21 (DE3) Star, pCDF-Duet1, IPTG induced before encapsulin; co-purified with encapsulin particles; not shown: mNeonGreen, N-terminal, kept) [mNeonGreen C-terminally fused to the native T1 targeting peptide] | –
2 | – | B1 | binding result [2]: binds
3 | ~2 | DGSLGIGSLKG (consensus targeting peptide found in T1 encapsulin systems; The targeting peptide is at the C-terminus of mNeonGreen; also called mNeonGreenTP (T1 consensus TP); T1 consensus TP; source: E. coli One shot BL21 (DE3) Star, pCDF-Duet1, IPTG induced before encapsulin; co-purified with encapsulin particles; not shown: mNeonGreen, N-terminal, kept) [mNeonGreen C-terminally fused to the T1 consensus targeting peptide] | –
4 | – | PLTVGSLRRGG (native 11-residue targeting peptide of the M. xanthus (T3) encapsulin system; The targeting peptide is at the C-terminus of mNeonGreen; also called mNeonGreenTP (native T3 TP); native T3 TP; source: E. coli One shot BL21 (DE3) Star, pCDF-Duet1, IPTG induced before encapsulin; co-purified with encapsulin particles; not shown: mNeonGreen, N-terminal, kept) [mNeonGreen C-terminally fused to the native T3 targeting peptide] | cargo proteins per shell [3]: ~45 cargo proteins per shell
